How the values were obtained:
[1] = tested on: S. aureus (strain not given); assay: MIC analysis of various lysins, chimeric lysins and antibiotics in MHB and human serum; type: cell-based; details: Table 14 (Example 2); for Fold decrease in MIC: human serum vs MHB
Protocol: To further evaluate the binding domain relevance to the serum component effect, various chimerics were constructed by replacing or swapping out one binding domain for another. Chimeric lysins having the Sal1 CHAP catalytic domain with ClyS binding domain, PlySs2 (CF-301) binding domain, or lysostaphin binding domain were assayed for MIC using MHB versus human serum. the results are depicted below in TABLE 14.

[2] = tested on: S. aureus (strain not given); assay: as above; type: cell-based; details: Table 2; for Fold decrease in MIC: human serum vs MHB
[3] = tested on: S. aureus strain ATCC 700699; assay: Confocal/deconvolution microscopy of cell surface binding; details: 0.25×MIC
S. aureus strain MW2 = assay: Fluorescence microscopy of binding after preincubation in different serum types; details: 0.25×MIC
Protocol: The effect of preincubation of staphylococci with multiple different serum types and MHB on subsequent labeling with a 0.25×MIC amount of CF-301^RHD was also examined by fluorescence microscopy (FIG. 11).
Fluorescence microscopy: Binding of PlySs2 (CF-301) to the Bacterial Cell Surface in Different Serum Environments. Mid-log phase MRSA strain MW2 was suspended at 1×10^7 CFU/mL in either CAMHB or 100% serum from either human (Sigma-Aldrich), rabbit (Gibco), rat (BioreclamationIVT), or mouse (BioreclamationIVT) sources and incubated for 30 minutes at 37° C. An additional mouse serum sample was also tested, containing 40 mg/mL HSA (Albumin Biosciences). After the preincubation, bacteria were washed with 1× phosphate-buffered saline (PBS) and resuspended in 50 μl of PBS and attached to the surface of a poly-L-lysine-coated cover glass. The cells were washed and treated with CF-301^RHOD (2 μg/mL in PBS) for 10 minutes before washing and counterstaining with DAPI. Slides were mounted in 50% glycerol and 0.1% p-phenylenediamine in PBS, pH 8. Fluorescence microscopy was performed using a Nikon Eclipse E400 microscope, equipped with a Nikon 100×/1.25 oil immersion lens, and a Retiga EXi fast 1394 camera (QImaging). QCapture Pro version 5.1.1.14 software (QImaging) was used for image capture and processing.

[4] = tested on: staphylococci (strain not given); assay: Checkerboard analysis of PlySs2/CF-301 with AMPs, antimicrobial proteins and albumins in heat-inactivated human serum; type: cell-based, S. aureus; details: in combination with PlySs2/CF-301

B1: Sal1: anti-staphylococcal lysin, SEQ ID NO:5 (protein)
chain: MAKTQAEINKRLDAYAKGTVDSPYRIKKATSYDPSFGVMEAGAIDADGYYHAQCQDLITDYVLWLTDNKVRTWGNAKDQIKQSYGTGFKIHENKPSTVPKKGWIAVFTSGSYQQWGHIGIVYDGGNTSTFTILEQNWNGYANKKPTKRVDNYYGLTHFIEIPVKAGTTVKKETAKKSASKTPAPKKKATLKVSKNHINYTMDKRGKKPEGMVIHNDAGRSSGQQYENSLANAGYARYANGIAHYYGSEGYVWEAIDAKNQIAWHTGDGTGANSGNFRFAGIEVCQSMSASDAQFLKNEQAVFQFTAEKFKEWGLTPNRKTVRLHMEFVPTACPHRSMVLHTGFNPVTQGRPSQAIMNKLKDYFIKQIKNYMDKGTSSSTVVKDGKTSSASTPATRPVTGSWKKNQYGTWYKPENATFVNGNQPIVTRIGSPFLNAPVGGNLPAGATIVYDEVCIQAGHIWIGYNAYNGNRVYCPVRTCQGVPPNHIPGVAWGVFK
modifications: Staphylococcus
[1]
  Minimal inhibitory concentration, MHB: 2 µg/mL
  Fold decrease in MIC: 32
  Minimal inhibitory concentration, Human serum: 0.06 µg/mL
[2]
  Minimal inhibitory concentration, MHB: 2 µg/mL
  Fold decrease in MIC: 32
  Minimal inhibitory concentration, Human serum: 0.06 µg/mL

B2: ClyS: chimeric lysin active against Staphylococci, without SH3-type binding domain; SEQ ID NO:4 (protein)
chain: METLKQAESYIKSKVNTGTDFDGLYGYQCMDLAVDYIYHVTDGKIRMWGNAKDAINNSFGGTATVYKNYPAFRPKYGDVVVWTTGNFATYGHIAIVTNPDPYGDLQYVTVLEQNWNGNGIYKTELATIRTHDYTGITHFIRPNFATESSVKKKDTKKKPKPSNRDGLNKDKIVYDRTNINYNMVLQGKSASKITVGSKAPYNLKWSKGAYFNAKIDGLGATSATRYGDNRTNYRFDVGQAVYAPGTLIYVFEIIDGWCRIYWNNHNEWIWHERLIVKEVF
modifications: Staphlyococcus
[1]
  Minimal inhibitory concentration, MHB: 8 µg/mL
  Fold decrease in MIC: 2
  Minimal inhibitory concentration, Human serum: 4 µg/mL
[2]
  Minimal inhibitory concentration, MHB: 8 µg/mL
  Fold decrease in MIC: 2
  Minimal inhibitory concentration, Human serum: 4 µg/mL

B3: CF-301^RHD: rhodamine-labeled PlySs2 (CF-301) (conjugate)
chain: MTTVNEALNNVRAQVGSGVSVGNGECYALASWYERMISPDATVGLGAGVGWVSGAIGDTISAKNIGSSYNWQANGWTVSTSGPFKAGQIVTLGATPGNPYGHVVIVEAVDGDRLTILEQNYGGKRYPVRNYYSAASYRQQVVHYITPPGTVAQSAPNLAGSRSYRETGTMTVTVDALNVRRAPNTSGEIVAVYKRGESFDYDTVIIDVNGYVWVSYIGGSGKRNYVATGATKDGKRFGNAWGTFK
[3]; absence of the HSA pretreatment
  labeling of the staphylococcal cell wall: no labeling was observed
[3]; cells pretreated with HSA at 40 mg/mL
  labeling of the staphylococcal cell wall: extensive labeling
S. aureus strain MW2; mouse serum supplemented with HSA
  labeling of S. aureus strain MW2: restore high-level binding and fluorescence
S. aureus strain MW2; preincubation with human serum or rabbit serum
  labeling of S. aureus strain MW2: extensive labeling
S. aureus strain MW2; preincubation with rat serum, mouse serum or MHB alone
  labeling of S. aureus strain MW2: poorly labeled cells

B4: Lactoferrin (Human milk): lactoferrin, human milk (Sigma-Aldrich) (protein, UniProt P02788 20-710, looked up)
Lactotransferrin: GRRRSVQWCAVSQPEATKCFQWQRNMRKVRGPPVSCIKRDSPIQCIQAIAENRADAVTLDGGFIYEAGLAPYKLRPVAAEVYGTERQPRTHYYAVAVVKKGGSFQLNELQGLKSCHTGLRRTAGWNVPIGTLRPFLNWTGPPEPIEAAVARFFSASCVPGADKGQFPNLCRLCAGTGENKCAFSSQEPYFSYSGAFKCLRDGAGDVAFIRESTVFEDLSDEAERDEYELLCPDNTRKPVDKFKDCHLARVPSHAVVARSVNGKEDAIWNLLRQAQEKFGKDKSPKFQLFGSPSGQKDLLFKDSAIGFSRVPPRIDSGLYLGSGYFTAIQNLRKSEEEVAARRARVVWCAVGEQELRKCNQWSGLSEGSVTCSSASTTEDCIALVLKGEADAMSLDGGYVYTAGKCGLVPVLAENYKSQQSSDPDPNCVDRPVEGYLAVAVVRRSDTSLTWNSVKGKKSCHTAVDRTAGWNIPMGLLFNQTGSCKFDEYFSQSCAPGSDPRSNLCALCIGDEQGENKCVPNSNERYYGYTGAFRCLAENAGDVAFVKDVTVLQNTDGNNNEAWAKDLKLADFALLCLDGKRKPVTEARSCHLAMAPNHAVVSRMDKVERLKQVLLHQQAKFGRNGSDCPDKFCLFQSETKNLLFNDNTECLARLHGKTTYEKYLGPQYVAGITNLKKCSTSPLLEACEFLRK
[4]
  ΣFICavg: ≥1.16

B5: Lactoferrin (Bovine colostrum): lactoferrin, bovine colostrum (Sigma-Aldrich) (protein, UniProt P24627 20-708, looked up)
Lactotransferrin: APRKNVRWCTISQPEWFKCRRWQWRMKKLGAPSITCVRRAFALECIRAIAEKKADAVTLDGGMVFEAGRDPYKLRPVAAEIYGTKESPQTHYYAVAVVKKGSNFQLDQLQGRKSCHTGLGRSAGWIIPMGILRPYLSWTESLEPLQGAVAKFFSASCVPCIDRQAYPNLCQLCKGEGENQCACSSREPYFGYSGAFKCLQDGAGDVAFVKETTVFENLPEKADRDQYELLCLNNSRAPVDAFKECHLAQVPSHAVVARSVDGKEDLIWKLLSKAQEKFGKNKSRSFQLFGSPPGQRDLLFKDSALGFLRIPSKVDSALYLGSRYLTTLKNLRETAEEVKARYTRVVWCAVGPEEQKKCQQWSQQSGQNVTCATASTTDDCIVLVLKGEADALNLDGGYIYTAGKCGLVPVLAENRKSSKHSSLDCVLRPTEGYLAVAVVKKANEGLTWNSLKDKKSCHTAVDRTAGWNIPMGLIVNQTGSCAFDEFFSQSCAPGADPKSRLCALCAGDDQGLDKCVPNSKEKYYGYTGAFRCLAEDVGDVAFVKNDTVWENTNGESTADWAKNLNREDFRLLCLDGTRKPVTEAQSCHLAVAPNHAVVSRSDRAAHVKQVLLHQQALFGKNGKNCPDKFCLFKSETKNLLFNDNTECLAKLGGRPTYEEYLGTEYVTAIANLKKCSTSPLLEACAFLTR
[4]
  ΣFICavg: ≥1.16

B6: Lysozyme (Human, recombinant): human lysozyme, recombinant expressed in rice (protein, UniProt P61626 19-148, looked up)
Lysozyme C: KVFERCELARTLKRLGMDGYRGISLANWMCLAKWESGYNTRATNYNAGDRSTDYGIFQINSRYWCNDGKTPGAVNACHLSCSALLQDNIADAVACAKRVVRDPQGIRAWVAWRNRCQNRDVRQYVQGCGV
[4]
  ΣFICavg: ≤0.05

B7: Lysozyme (Human neutrophil derived): lysozyme, human neutrophil-derived (protein, UniProt P61626 19-148, looked up)
Lysozyme C: KVFERCELARTLKRLGMDGYRGISLANWMCLAKWESGYNTRATNYNAGDRSTDYGIFQINSRYWCNDGKTPGAVNACHLSCSALLQDNIADAVACAKRVVRDPQGIRAWVAWRNRCQNRDVRQYVQGCGV
[4]
  ΣFICavg: ≤0.056

B8: Serum albumin (Rat, from serum): rat serum albumin (protein, UniProt P02770 25-608, looked up)
Albumin: EAHKSEIAHRFKDLGEQHFKGLVLIAFSQYLQKCPYEEHIKLVQEVTDFAKTCVADENAENCDKSIHTLFGDKLCAIPKLRDNYGELADCCAKQEPERNECFLQHKDDNPNLPPFQRPEAEAMCTSFQENPTSFLGHYLHEVARRHPYFYAPELLYYAEKYNEVLTQCCTESDKAACLTPKLDAVKEKALVAAVRQRMKCSSMQRFGERAFKAWAVARMSQRFPNAEFAEITKLATDVTKINKECCHGDLLECADDRAELAKYMCENQATISSKLQACCDKPVLQKSQCLAEIEHDNIPADLPSIAADFVEDKEVCKNYAEAKDVFLGTFLYEYSRRHPDYSVSLLLRLAKKYEATLEKCCAEGDPPACYGTVLAEFQPLVEEPKNLVKTNCELYEKLGEYGFQNAVLVRYTQKAPQVSTPTLVEAARNLGRVGTKCCTLPEAQRLPCVEDYLSAILNRLCVLHEKTPVSEKVTKCCSGSLVERRPCFSALTVDETYVPKEFKAETFTFHSDICTLPDKEKQIKKQTALAELVKHKPKATEDQLKTVMGDFAQFVDKCCKAADKDNCFATEGPNLVARSKEALA
[4]
  ΣFICavg: ≥1.16

From US20220023399A1, “BLOOD COMPONENT POTENTIATION OF LYTIC PROTEIN ANTI-BACTERIAL ACTIVITY AND METHODS AND USES THEREOF” (priority 2017, published 2022)
